The text below walks through data of patent publication US20180086841A1 (Merck Sharp & Dohme, published 2018).

The target in one experiment is T1, human CD27 (A59T) (human, UniProt P26842 21-260).
T1 construct: also called hCD27 (A59T); human CD27 variant p.Ala59Thr
As to the kind of experiment: flow cytometry on transiently transfected CHO-K1 cells.

Another experiment concerns the target T2, P8A.
T2 construct: also called hCD27 P8A
T2 receptor chain: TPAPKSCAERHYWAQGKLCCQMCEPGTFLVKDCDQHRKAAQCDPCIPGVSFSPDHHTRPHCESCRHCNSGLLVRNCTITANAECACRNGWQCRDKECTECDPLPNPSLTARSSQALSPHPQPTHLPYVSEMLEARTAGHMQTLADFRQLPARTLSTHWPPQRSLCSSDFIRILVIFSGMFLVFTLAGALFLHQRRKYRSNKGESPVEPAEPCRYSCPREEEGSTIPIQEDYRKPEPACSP
As to the kind of experiment: flow cytometry on CHO-K1 transfectants, left sub-column, cell hatched (loss of binding). In general terms: In flow cytometry, cells or beads pass a laser one at a time.

The next experiment concerns the target T3, R37A.
T3 construct: also called hCD27 R37A
T3 receptor chain: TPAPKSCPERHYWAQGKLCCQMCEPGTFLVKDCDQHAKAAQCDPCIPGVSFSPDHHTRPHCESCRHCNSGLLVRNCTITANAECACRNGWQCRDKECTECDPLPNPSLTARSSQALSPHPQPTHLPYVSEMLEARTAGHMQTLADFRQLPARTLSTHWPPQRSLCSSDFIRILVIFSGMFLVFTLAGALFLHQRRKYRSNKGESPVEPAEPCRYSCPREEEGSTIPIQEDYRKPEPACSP
The description is as above.

A further experiment addresses T4, K38A.
T4 construct: also called hCD27 K38A
T4 receptor chain: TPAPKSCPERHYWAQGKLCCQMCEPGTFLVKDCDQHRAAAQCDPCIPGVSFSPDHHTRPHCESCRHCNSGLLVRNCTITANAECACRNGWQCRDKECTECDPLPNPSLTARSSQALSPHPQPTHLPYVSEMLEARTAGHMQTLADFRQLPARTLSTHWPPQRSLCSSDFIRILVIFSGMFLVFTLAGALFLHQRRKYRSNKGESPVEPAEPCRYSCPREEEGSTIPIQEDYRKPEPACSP
The description is as above.

Another experiment addresses T5, human CD27 (human, UniProt P26842 21-260).
T5 construct: also called hCD27; HsCD27
As to the kind of experiment: flow cytometry MFI, CD8+ T cells of human PBMC, N=2 donors.

The next experiment deals with T6, R93A.
T6 construct: also called hCD27 R93A
T6 receptor chain: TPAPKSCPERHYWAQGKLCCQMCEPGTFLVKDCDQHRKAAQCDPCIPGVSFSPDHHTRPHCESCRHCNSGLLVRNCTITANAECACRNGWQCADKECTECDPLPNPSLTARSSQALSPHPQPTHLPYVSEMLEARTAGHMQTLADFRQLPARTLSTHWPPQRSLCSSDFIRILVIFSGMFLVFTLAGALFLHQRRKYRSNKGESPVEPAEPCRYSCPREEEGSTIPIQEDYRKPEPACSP
As to the kind of experiment: flow cytometry on CHO-K1 transfectants, right sub-column.

The next experiment concerns the target T7, Q15A.
T7 construct: also called hCD27 Q15A
T7 receptor chain: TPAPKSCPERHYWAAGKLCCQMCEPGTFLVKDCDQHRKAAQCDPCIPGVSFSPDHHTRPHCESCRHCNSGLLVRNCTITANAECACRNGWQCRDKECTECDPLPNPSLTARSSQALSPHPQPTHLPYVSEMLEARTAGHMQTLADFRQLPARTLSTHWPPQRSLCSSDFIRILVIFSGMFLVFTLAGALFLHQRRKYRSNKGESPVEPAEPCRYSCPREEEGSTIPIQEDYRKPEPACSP
The experiment is described as above.

The target in the next experiment is T8, H60A.
T8 construct: also called hCD27 H60A
T8 receptor chain: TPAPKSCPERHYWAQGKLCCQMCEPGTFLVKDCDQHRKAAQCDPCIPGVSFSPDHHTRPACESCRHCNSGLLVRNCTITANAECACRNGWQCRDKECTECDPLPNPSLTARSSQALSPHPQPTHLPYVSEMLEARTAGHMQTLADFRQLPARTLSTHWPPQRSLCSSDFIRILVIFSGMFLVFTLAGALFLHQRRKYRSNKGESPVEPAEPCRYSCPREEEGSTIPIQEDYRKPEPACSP
Described as above.

A further experiment has as its target T9, I46A.
T9 construct: also called hCD27 I46A
T9 receptor chain: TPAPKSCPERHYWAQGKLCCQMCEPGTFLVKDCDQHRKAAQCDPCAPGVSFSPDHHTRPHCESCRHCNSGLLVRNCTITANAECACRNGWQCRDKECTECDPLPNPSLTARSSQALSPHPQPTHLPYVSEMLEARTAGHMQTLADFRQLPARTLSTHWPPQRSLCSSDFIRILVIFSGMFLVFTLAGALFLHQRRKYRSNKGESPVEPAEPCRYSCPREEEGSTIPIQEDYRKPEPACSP
The experiment is described as above.

The next experiment has as its target T10, S63A.
T10 construct: also called hCD27 S63A
T10 receptor chain: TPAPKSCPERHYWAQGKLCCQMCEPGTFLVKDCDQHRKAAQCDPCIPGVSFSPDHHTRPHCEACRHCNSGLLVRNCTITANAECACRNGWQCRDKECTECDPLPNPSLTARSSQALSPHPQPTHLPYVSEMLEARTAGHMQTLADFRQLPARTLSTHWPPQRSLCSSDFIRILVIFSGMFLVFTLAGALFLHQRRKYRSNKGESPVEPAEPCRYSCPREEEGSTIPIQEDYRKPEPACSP
The experiment is described as above.

Another experiment deals with T11, V49A.
T11 construct: also called hCD27 V49A
T11 receptor chain: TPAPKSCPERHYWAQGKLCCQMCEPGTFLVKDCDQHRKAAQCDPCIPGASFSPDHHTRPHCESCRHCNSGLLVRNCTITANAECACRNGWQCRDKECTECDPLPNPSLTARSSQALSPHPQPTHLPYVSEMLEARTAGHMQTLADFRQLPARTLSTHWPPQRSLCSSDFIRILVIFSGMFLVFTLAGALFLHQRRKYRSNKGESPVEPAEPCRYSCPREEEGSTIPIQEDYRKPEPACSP
The experiment is described as above.

Procedure for H60A: (§1) The hCD27 variants that were tested are listed. Amino acids correspond to the UniProt P26842-1 sequence. Amino acids 1-20 constitute the signal peptide. Binding is expressed as the geometric mean of the FITC signal, relative to antibody binding to hCD27, which was set at 100%.
(§2) The ability of several anti-hCD27 antibodies to bind to a series of hCD27 alanine mutants was determined using CHO-K1 cells, transiently transfected pCI-neo empty vector, pCI-neo.hCD27 and several pCI-neo.CD27Ala mutant constructs.
(§3) Detached cells were transferred to 96 wells round-bottomed well plates at approximately 1.2×10⁵ cells/well. After spinning down the cells, discarding the supernatants and re-suspending the cells in the residual volume, the primary antibodies were added and incubated for 30 minutes at 4° C. Cells were washed three times with DPBS/BSA 1%, followed by centrifugation, discarding of the supernatants and re-suspension in the residual volume. […] After washing once, antibody binding was detected using the HTS plate reader (FACS Canto II) and FlowJo software for data analysis. Debris, dead cells and doublets were excluded from the analysis. Binding was expressed as the geometric mean of the FITC signal, relative to antibody binding to hCD27, which was set at 100%.
Procedure for I46A: as §1, §2, §3
Procedure for K38A: as §2, §3
Procedure for P8A: as §2, §3
Procedure for Q15A: as §1, §2, §3
Procedure for R37A: as §2, §3
Procedure for R93A: as §1, §2, §3
Procedure for S63A: as §1, §2, §3
Procedure for V49A: as §1, §2, §3

B1: hCD27.15-6B (antibody, human IgG4 S228P, kappa, V domains shown)
VH: QVQLVQSGAEVKKPGASVKVSCKASGFIIKATYMHWVRQAPGQRLEWMGRIDPANGETKYDPKFQVRVTITADTSASTAYMELSSLRSEDTAVYYCARYAWYFDVWGQGTLVTVSS
VL: DIQMTQSPSSLSASVGDRVTITCRASENIYSFLAWYQQKPGKAPKLLIYHAKTLAEGVTSRFSGSGSGTDFTLTISSLQPEDSATYYCQHYYGSPLTFGQGTRLEIKR
notes: also called hCD27.15 (humanized 6B); humanized hCD27.15 (human IgG4, Clone 6B)
For the molecule B1, the binding result in the experiment with human CD27 (A59T) is reported as “no binding”.

B2: hCD27.131A (mouse parental 131A) (antibody, mouse IgG1, V domains shown)
VH: QIQLVQSGPELKKPGETVKISCKASGYTFTNYGMNWVKQAPGKGLKWMGWINTNTGEPTYAEEFKGRFAFSLETSATTAYLQINNLKNEDTATYFCAREGDAMDYWGQGTSVTVSS
VL: QIVLTQSPAIMSASPGEKVTMTCSASSSVSYMHWYQQKSGTSPKRWIYDTSKLASGVPARFSGSGSGTSYSLTISSMEAEDAATYYCQQWNSYPFTFGSGTKLEIK
notes: Mouse IgG1 antibody; also called mouse hCD27.131A
For B2, the “binding, WT hCD27 = 100 (GM FITC)” value in the experiment with P8A was 44.9%; with R37A, 50.3%; with K38A, 48.2%; in the experiment with R93A it was 90%; in the experiment with Q15A it was 136%; in the experiment with H60A it was 129%. For the same molecule, the entries for the “binding, WT hCD27 = 100 (GM FITC)” value with I46A, in the experiment with S63A and with V49A were 75%, 141% and 99.8%, respectively. The molecule also returned an EC50 in the experiment with human CD27 of 0.0194 nM.

Broadly, the EC50 is the concentration giving half of the maximal effect.
